Target: T1, recombinant human MFAP4 (microfibrillar-associated protein 4) (human, UniProt P55083 22-255)
T1 construct: It was coated on plates or filters at 10 µg/ml and also served as the ELISA standard; also called rhMFAP4; hrMFAP4
T1 sequence (looked up): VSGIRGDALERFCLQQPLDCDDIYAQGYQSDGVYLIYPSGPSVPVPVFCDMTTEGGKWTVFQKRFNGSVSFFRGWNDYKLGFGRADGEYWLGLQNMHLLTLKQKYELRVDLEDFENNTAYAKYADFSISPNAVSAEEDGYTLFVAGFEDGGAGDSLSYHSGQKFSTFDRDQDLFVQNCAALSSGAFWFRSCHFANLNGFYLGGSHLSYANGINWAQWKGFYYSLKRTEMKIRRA
Assay: sandwich ELISA, capture antibody coated at 1 µg/ml; rhMFAP4 as standard
Experimental: The next day, plates were washed and blocked with PBS/tween for 1h at room temperature. […] Then, plates were successively incubated with horseradish peroxidase (HRP)-conjugated streptavidin (1:2000, diluted in PBS/tween, Invitrogen) for half an hour at room temperature, O-phenylenediamine dihydrochloride (OPD) (0.4 mg/ml, H1009, Sigma) dissolved in HRP with 0.03% H₂O₂, for 15 min at room temperature in the dark. Finally, 100 μl/well of 1M H₂SO₄ was added to stop the color development. Optical density was read at 492 nm wavelength with 620 nm as reference using ELISA microplate reader.

B1: HG Hyb 7-5 murine monoclonal antibody raised against human recombinant MFAP4 (antibody, mouse IgG1, V domains shown)
VH: EVQLQQSGPELVKPGASVKLSCKTSGYTFTSYDMNWVKQRPGQGLEWIGWIFPRDGSTKFNEKFKGKATLTVDTSSTTAYMELHSLTSEDSAVYFCARAEIFFDYGFDYWGQGTTLTVSS
VL: DIVMTQSTALMAASPGEKVTITCSVSSSISSSNLHWYQQKSETSPKSWIYGTSNLASGVPGRFSGSGSGTSYSLTISSVEAEDAATYYCQQWSSYPLTFGGGTKLEIK
notes: Used as the capture antibody in the ELISA for human MFAP4
binding result: binds
